B1: TPR t1 (parent)
chain: GACCAAUCUGCCCUCAGAGCUCGAGAACAUCUUCGGAUGCAGAGGAGGCAGGCUUCGGUGGCGCGAUAGCGCCAACGUCCUCAACCUCCAAUGCAUCCCACCACAUGAUGAUGCCUGAAGAGCCUUGGUUUUUUG

Variants of: B1
Assay: polymerase ribozyme fitness, log enrichment relative to wild type (log ratio); higher = more active; in vitro selection for triplet polymerase activity
In short: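 Each subunit of a heterodimeric triplet polymerase ribozyme was mutagenized into a library by PCR, transcribed, and subjected to one round of in vitro selection, run in triplicate. Libraries were annealed with a biotinylated primer, the partner subunit and triplets, incubated frozen at −7 °C, and extended constructs were gel-excised, captured on streptavidin beads and recovered by RT-PCR. Input and output libraries were sequenced on Illumina, keeping genotypes with ≥10 input reads and ≥1 read per output. Fitness is log base 2 of genotype enrichment divided by wild-type enrichment, from inverse-variance-weighted replicate averages.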

Variant	polymerase ribozyme fitness (log ratio)
GACCAAUCUGCCCUUAGAGCUCGAGAACAUCUUCGGAUGCAGCGGAGGCAGGCUUCGGUGGCGCGAUAACGCCAACGUCCUCAACCUCCAAUGCAUCCCACCACAUGAUGAUGCCUGAAGAGCCUUGGUUUUUUG	-4.44
GACCAAUCUGCCCUUAGAGAUCGAGAACAUCUUCGGAUGCAGAGGAGGCAGGCUUCGGUGGCGCGAUAGCGUCAACGUCCUCAACUUCCAAUGCAUCCCACCACAUGAUGAUGCCUGAAGAGCCUUGGUUUUUUG	-3.76
GACCAAUCUGCCCUUAGAGCUCGAGAACAUCUUCGGAUGCAGAGGAGGCAGGCUUCGGUGGCGCGAUAGCGCCAACGUCCUCACCCUCCAAUGCAUCCCACCACAUGAUGAUGCCUGAAGAGCCUUGGUUUUUUG	-1.68
GACCAAUCUGCCCUUAGAGCUCGAGAAUAUCUUCGGAUGCAGAGGAGGCAGGCUUCGGUGGCGCGAUAGCGGCAACGUCCUCAACCUCCAAUGCACCCCACCACAUGAUGAUGCCUGAAGAGCCUUGGUUUUUUG	-3.94
GACCAAUCUGCCCUUAGAGCUCGAGAACAUCUUCGGAUGCAGAGGAGGCAGGCUUCGGUGGCGCGAUAGCGCCAACGUCCUCAACCUCCAAUGCAUCCCACCACAUGAUGAUGCCUGAAGAGCCUUGGUUUUUUG	-1.37
GACCAAUCUGCCCUUAGAGCUCGAGAACAUCUUCGGAUGCAGAGGAGGCUGGCUUCGGUGGCGCGAUAGCACCAACGUCCUCAACCUCUAAUGCAUCCCACCACAUGAUGAUGCCUGAAGAGCCUUGGUUUUUUG	-5.22
GACCAAUCUGCCCUUAGAGCUCGAGAACAUCUUCGGAUGCAGAGGAGGCAGGCUUCGGUGGCGCGAUAGCGCCAACGUCCUCAACCUCCAAUGCAUCCCCCCACAUGAUGAUGCCUGAAGAGCCUUGGUUUUUUG	-2.86
GACCAAUCUGCCCUUAGAGCUCGAGAACAUCUUCGGAUGCAGCGGAGGCAGGCUUCGGUGGCGCGAUAGCGCCAACGUCCUCAACCUCCAAUGCAUCCCACCACAUGAUGAUGCCUGAAGAGCCUUGGUUUUUUG	-2.99
GACCAAUCUGCCCUUAGAGCUCGAGAACAUCUUCGGAUGCAGAGGGGGCAGGCUUCGGUGGCGCGAUAGCGCCAACGUCCUCAUCCUCCAAUGCAUCCCACCACAUGAUGAAUCCUGAAUAGCCUUGGUUUUUUG	-4.78
GACCAAUCUGCCCUUAGAGCUCGAGAACAUCUUCGGAUGCAGAGGAGGCAGGCUUCGGUGGCGCGAUAGCGCCAACGUCCUCAACCUCCAAUGCAUCCCACCACAUGAUGCUGCCUGAAGAGCCUUGGUAUUUUG	-1.29
GACCAAUCUGCCCUUAGAGCUCGAGAACAUCUUCGGGUGCAGAGGAGGCAGGCUUCGGUGGCGCGAUAGUGCCAACGUCCUCAACCUCCAAUGCAUCCCUCCACAUGAUGAUGCCUGAAGCGUCUUGGUUUUUUG	-1.4
GACCAAUCUGCCCUUAGAGCUCGAGAACAUCUUCGGUUGCAGAGGAGGCAGGCUGUGGUGGCGCGAUAGCGCCAACGUCCUCAACCUCCAAUGCAUCCCACCACAUGAUGAUGCCUGAAGAGCCUUGGUUUUUUG	-3.11
GACCAAUCUGCCCUUAGAGCUCGAGAAUAUCUUCGGAUGCAGAGGAGGCAGGCUUCGGUGGCGCGAUAGCGCCAACGUCCUCAACCUCAAAUGCAUCCCACCACAUGAUGAUGCCUGAAGAGACUUGGUUUUUUG	-5.8
GACCAAUCUGCCCUUAGAGCUCGAGAACAUCUUCGGAUGCCGAGAAGGCAGGCUUCGGUGGCGCGAUAGCCCCAACGUCCUCAACCUCCAAUGCAUCCCACCACAUGAUGAAGCCUAAAGAGCCUUCGUUUUUUG	-4.04
GACCAAUCUGCCCUUAGAGCUCGAGAACAUCUUCGGAUGCAGAGGAGGCAGGCUUCGGUGGCGCGAUAGCGCCGACGUCCUCAACCUCCAAUGCAUCCCACCACGUGAUGAUGCCUGAAGAGCCUUGGUUUUUUG	-4.44
GACCAAUCUGCCCUUAGAGCUCGAGAACAUCUUCGGAUGCAGUGGAGGCAGGCUUCGGUGGCGCGAUAGCGGCAACGUCCUCAACCUUCACUGCAUCCCACCACAUGAUGAUGCCUGAACAGCCUUGGUUUUUUG	-1.58
GACCAAUCUGCCCUUAGAGCUCGAGAACAUCUUCGGCUGCAGAGGAGGCAGGAUUCGGUGGCGCGAUAGCGCCAACGUCCUCAACCUCCAAUGCAUCCCACCACAUGAUGAUGCCUGAAGAGCCUUGGUUUUUUG	-1.72
GACCAAUCUGCCCUUAGAGCUCGAGAACAUCUUCGGAUGCAGAGGAGGCAGGCUUCGGUGGCGCGAUAGCGCCAACGUCCUCAACCUCCAAUGCAUCCCACCACAUGAUGUUGCCUGCAGAGCCUUGGUUUUUUG	-5.19
GACCAAUCUGCCCUUAGAGCUCGAGAACAUCUUCGGAUGCGGAGGAGGCAGUCUUCGGUGGUGCGAUAGCGCCAACGUCCUCAACCUCCAAUGCAUCCCACCACAUGAUGAUGCCUGAUGAGCCUUGGUUUUUUG	-2.59
GACCAAUCUGCCCUUAGUGCUCGAGAACAUCUUCGGAUGCAGAUGAGGCAGGCUUCGGUGGCGCGAUAUCGCCAACGUCCUCAACCUCCAAUGCAUCCCACCACAUGAUGAUGCCUGAAGAGCCUUGGUUUUUUG	-5.2
GACCAAUCUGCCCUUAGAGCUCGAGAACAUCUUCGGAUGCUGAGGAGGCAGGCUUCGGUGGCGCGAUAGCGCCAACGUCCUCAACCUCCCAUGCAUCCCACCACAUGAUGAUGCGUGAAGAGCCUUGGUUUUUUG	-4.18
